Laboratory results as given in the supplement of paper PMC10065799, “High-throughput profiling of sequence recognition by tyrosine kinases and SH2 domains using bacterial peptide display” (eLife, 2023).
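Further: 11-residue human phosphosite peptides and single-mutation variants displayed on the E. coli surface, counted by deep sequencing, each peptide's frequency after selection divided by its frequency in the unselected input library; frequency after pTyr selection over input frequency; kinase dosed for 20-30% of maximal phosphorylation in three min.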

These sequences were tested against EPHB1 (UniProt P54762) (assay: phosphorylation enrichment, bacterial display (enrichment ratio); higher = better substrate or ligand; peptides without Tyr show the background).
EPHB1, sequence (P54762 whole entry, looked up): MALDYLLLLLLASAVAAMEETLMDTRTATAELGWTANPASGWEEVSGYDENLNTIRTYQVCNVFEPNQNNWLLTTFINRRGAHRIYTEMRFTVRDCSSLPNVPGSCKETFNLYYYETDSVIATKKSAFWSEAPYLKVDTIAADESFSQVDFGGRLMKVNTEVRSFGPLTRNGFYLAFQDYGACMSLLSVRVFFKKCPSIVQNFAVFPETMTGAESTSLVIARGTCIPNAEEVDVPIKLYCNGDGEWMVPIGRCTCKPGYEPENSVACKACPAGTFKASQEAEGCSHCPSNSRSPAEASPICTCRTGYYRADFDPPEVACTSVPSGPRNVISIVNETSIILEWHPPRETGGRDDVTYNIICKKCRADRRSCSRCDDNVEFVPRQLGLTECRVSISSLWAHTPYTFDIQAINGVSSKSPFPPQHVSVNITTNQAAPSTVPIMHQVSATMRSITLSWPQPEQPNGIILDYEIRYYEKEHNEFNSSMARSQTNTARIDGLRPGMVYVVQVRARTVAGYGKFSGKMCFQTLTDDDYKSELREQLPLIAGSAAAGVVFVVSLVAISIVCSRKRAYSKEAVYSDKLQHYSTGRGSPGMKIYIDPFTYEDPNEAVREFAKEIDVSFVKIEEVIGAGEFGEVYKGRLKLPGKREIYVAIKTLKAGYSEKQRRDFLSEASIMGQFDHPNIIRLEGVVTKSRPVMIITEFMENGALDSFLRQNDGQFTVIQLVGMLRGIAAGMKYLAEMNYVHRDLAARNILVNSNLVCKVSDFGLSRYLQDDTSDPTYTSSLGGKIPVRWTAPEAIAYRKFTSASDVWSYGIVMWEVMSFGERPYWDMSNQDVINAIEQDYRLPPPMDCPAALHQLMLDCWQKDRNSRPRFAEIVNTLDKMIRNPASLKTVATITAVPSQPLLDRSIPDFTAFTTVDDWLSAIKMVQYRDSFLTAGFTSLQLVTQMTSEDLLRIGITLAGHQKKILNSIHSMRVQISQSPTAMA
For LLVVLYKFRCF [PSEN1_Y154_Y159F_YF], the phosphorylation enrichment was 0.685. For DCPASYKKKSM [PDGFRA_Y768_R764C], the phosphorylation enrichment was 0.591.

What follows are sequences tested against Fyn (UniProt P06241) in the same assay as above.
Fyn, sequence (P06241 whole entry, looked up): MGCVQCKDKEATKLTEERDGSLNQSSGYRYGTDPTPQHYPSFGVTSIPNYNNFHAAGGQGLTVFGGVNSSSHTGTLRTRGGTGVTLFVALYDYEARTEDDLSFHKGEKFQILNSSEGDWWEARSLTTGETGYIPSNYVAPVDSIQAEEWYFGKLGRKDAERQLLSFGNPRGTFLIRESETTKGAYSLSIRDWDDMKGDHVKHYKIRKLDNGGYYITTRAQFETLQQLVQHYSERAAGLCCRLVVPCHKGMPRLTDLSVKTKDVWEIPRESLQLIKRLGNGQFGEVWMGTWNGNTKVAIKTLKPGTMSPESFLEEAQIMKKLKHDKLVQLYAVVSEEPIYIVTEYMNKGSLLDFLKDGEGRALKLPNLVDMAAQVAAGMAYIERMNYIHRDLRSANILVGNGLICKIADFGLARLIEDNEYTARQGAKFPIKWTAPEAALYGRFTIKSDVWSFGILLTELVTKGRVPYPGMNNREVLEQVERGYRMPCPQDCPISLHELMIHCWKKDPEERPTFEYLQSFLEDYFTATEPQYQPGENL
With AKLKDYYIFNK [CCDC42_Y149] the phosphorylation enrichment was 0.515. Work on FEPWVYSLSFE [PRKDC_Y647_F649L_YF] yielded a phosphorylation enrichment of 7.08. Sequence RSDSSYRMSAT [NHS_Y1532] has a phosphorylation enrichment of 0.747. For TFEPNYGTVKQ [RAPGEF6_Y1447_YF], the phosphorylation enrichment was 1.36. In the case of CTTIHYNFMWN [TP53_Y234_C238W_YF], the phosphorylation enrichment is reported as 0.508. Work on PLDGEYFSLQI [TP53_Y327_T329S] yielded a phosphorylation enrichment of 3.53. In the case of RTVPLYESLRK [DDB1_Y718_P721L], the phosphorylation enrichment is reported as 11.7. Work on LKLIQYHLTQQ [AKAP4_Y554] yielded a phosphorylation enrichment of 0.5. In the case of LITLVYGCSRQ [TMPRSS6_Y290_S288L], the phosphorylation enrichment is reported as 0.578. FKPENYRRLDI [VHL_Y175_V170F] gave a phosphorylation enrichment of 0.32. Sequence EFRFIYMAVQH [PTPN11_Y515_Q510E_YF] has a phosphorylation enrichment of 1.42. Sequence YDYKKYGKGLR [ZNF445_Y433] has a phosphorylation enrichment of 0.323. With QLDQRYLLVPE [DDX49_Y223] the phosphorylation enrichment was 0.574. For LVTAWYIGFLC [KCNQ2_Y237], the phosphorylation enrichment was 0.748. With DAHFTYSRYPW [LY75_Y888_D884A] the phosphorylation enrichment was 2.4. For GGSSPYSRRLP [CDK13_Y351], the phosphorylation enrichment was 0.403. With ESAAIYNPVIY [RHO_Y301_K296E] the phosphorylation enrichment was 8.88. For TKQLTYEEQDL [PIK3C3_Y310], the phosphorylation enrichment was 0.529. GSQERDFELVE [TSC2_Y407_Y407D] was tested, and the phosphorylation enrichment was 0.522. In the case of PVADRYDQSFE [MAPK14_Y323_P322R], the phosphorylation enrichment is reported as 0.589. YRIGPYQPSVP [MATR3_Y784_N787S] showed a phosphorylation enrichment of 0.514. GLDGSYLLRFS [SH2D1A_Y29_D33Y_YF] was tested, and the phosphorylation enrichment was 0.435. Sequence SKNSKCNAEST [PSEN1_Y315_Y315C] has a phosphorylation enrichment of 0.379. GDPTEYYSTAI [IGSF22_Y501] gave a phosphorylation enrichment of 0.599. TLLERYGMTKI [ACSF3_Y355_E359K] showed a phosphorylation enrichment of 0.484. With NYAKMYCNPDA [KNL1_Y489] the phosphorylation enrichment was 0.463. LLVVLYKFRCF [PSEN1_Y154_Y159F_YF] was tested, and the phosphorylation enrichment was 0.51. DCPASYKKKSM [PDGFRA_Y768_R764C] was tested, and the phosphorylation enrichment was 0.283.

These sequences were tested on AncSZ in the same assay as above.
Sequence AKLKDYYIFNK [CCDC42_Y149] has a phosphorylation enrichment of 0.596. With FEPWVYSLSFE [PRKDC_Y647_F649L_YF] the phosphorylation enrichment was 1.27. In the case of RSDSSYRMSAT [NHS_Y1532], the phosphorylation enrichment is reported as 0.764. Sequence TFEPNYGTVKQ [RAPGEF6_Y1447_YF] has a phosphorylation enrichment of 1.01. In the case of CTTIHYNFMWN [TP53_Y234_C238W_YF], the phosphorylation enrichment is reported as 1.43. PLDGEYFSLQI [TP53_Y327_T329S] gave a phosphorylation enrichment of 3.12. Work on RTVPLYESLRK [DDB1_Y718_P721L] yielded a phosphorylation enrichment of 0.668. Work on LKLIQYHLTQQ [AKAP4_Y554] yielded a phosphorylation enrichment of 0.902. With LITLVYGCSRQ [TMPRSS6_Y290_S288L] the phosphorylation enrichment was 1.7. For FKPENYRRLDI [VHL_Y175_V170F], the phosphorylation enrichment was 0.599. Work on EFRFIYMAVQH [PTPN11_Y515_Q510E_YF] yielded a phosphorylation enrichment of 1.31. YDYKKYGKGLR [ZNF445_Y433] showed a phosphorylation enrichment of 0.41. Work on QLDQRYLLVPE [DDX49_Y223] yielded a phosphorylation enrichment of 1.12. For LVTAWYIGFLC [KCNQ2_Y237], the phosphorylation enrichment was 2.1. DAHFTYSRYPW [LY75_Y888_D884A] showed a phosphorylation enrichment of 1.16. In the case of GGSSPYSRRLP [CDK13_Y351], the phosphorylation enrichment is reported as 0.549. ESAAIYNPVIY [RHO_Y301_K296E] was tested, and the phosphorylation enrichment was 1.01. In the case of TKQLTYEEQDL [PIK3C3_Y310], the phosphorylation enrichment is reported as 1.27. Sequence GSQERDFELVE [TSC2_Y407_Y407D] has a phosphorylation enrichment of 1.08. For PVADRYDQSFE [MAPK14_Y323_P322R], the phosphorylation enrichment was 0.867. With YRIGPYQPSVP [MATR3_Y784_N787S] the phosphorylation enrichment was 0.55. In the case of GLDGSYLLRFS [SH2D1A_Y29_D33Y_YF], the phosphorylation enrichment is reported as 0.839. Work on SKNSKCNAEST [PSEN1_Y315_Y315C] yielded a phosphorylation enrichment of 0.546. In the case of GDPTEYYSTAI [IGSF22_Y501], the phosphorylation enrichment is reported as 1.77. For TLLERYGMTKI [ACSF3_Y355_E359K], the phosphorylation enrichment was 0.751. Work on NYAKMYCNPDA [KNL1_Y489] yielded a phosphorylation enrichment of 1.12. With LLVVLYKFRCF [PSEN1_Y154_Y159F_YF] the phosphorylation enrichment was 1.39. With DCPASYKKKSM [PDGFRA_Y768_R764C] the phosphorylation enrichment was 0.394.

These sequences were tested against Fes (UniProt P07332) in the same assay as above.
Fes, sequence (P07332 whole entry, looked up): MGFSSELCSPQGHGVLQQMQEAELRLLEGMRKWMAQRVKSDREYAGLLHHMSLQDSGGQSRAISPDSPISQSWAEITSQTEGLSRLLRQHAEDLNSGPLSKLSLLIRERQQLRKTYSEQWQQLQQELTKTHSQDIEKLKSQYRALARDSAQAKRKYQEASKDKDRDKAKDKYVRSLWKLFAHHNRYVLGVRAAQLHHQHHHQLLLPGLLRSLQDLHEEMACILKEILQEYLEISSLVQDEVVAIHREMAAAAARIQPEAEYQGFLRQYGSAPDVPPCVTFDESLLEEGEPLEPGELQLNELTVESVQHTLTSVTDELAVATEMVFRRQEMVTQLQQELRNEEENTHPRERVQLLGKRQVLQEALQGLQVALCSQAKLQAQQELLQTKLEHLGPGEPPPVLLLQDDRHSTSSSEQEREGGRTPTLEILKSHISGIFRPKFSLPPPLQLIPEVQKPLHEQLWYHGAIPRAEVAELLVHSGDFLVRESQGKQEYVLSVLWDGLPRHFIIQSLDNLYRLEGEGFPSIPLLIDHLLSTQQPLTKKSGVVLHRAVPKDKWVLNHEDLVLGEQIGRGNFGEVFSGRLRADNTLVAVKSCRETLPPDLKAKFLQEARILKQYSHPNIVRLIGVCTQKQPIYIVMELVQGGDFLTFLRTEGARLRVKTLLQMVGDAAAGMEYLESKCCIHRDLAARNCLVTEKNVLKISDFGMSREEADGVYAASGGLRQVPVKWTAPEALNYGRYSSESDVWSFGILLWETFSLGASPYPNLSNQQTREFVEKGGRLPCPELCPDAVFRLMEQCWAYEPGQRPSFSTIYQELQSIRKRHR
AKLKDYYIFNK [CCDC42_Y149] was tested, and the phosphorylation enrichment was 0.635. FEPWVYSLSFE [PRKDC_Y647_F649L_YF] was tested, and the phosphorylation enrichment was 1.45. RSDSSYRMSAT [NHS_Y1532] showed a phosphorylation enrichment of 0.757. Sequence TFEPNYGTVKQ [RAPGEF6_Y1447_YF] has a phosphorylation enrichment of 0.607. For CTTIHYNFMWN [TP53_Y234_C238W_YF], the phosphorylation enrichment was 1.66. PLDGEYFSLQI [TP53_Y327_T329S] showed a phosphorylation enrichment of 2.23. In the case of RTVPLYESLRK [DDB1_Y718_P721L], the phosphorylation enrichment is reported as 1.15. Work on LKLIQYHLTQQ [AKAP4_Y554] yielded a phosphorylation enrichment of 1.34. LITLVYGCSRQ [TMPRSS6_Y290_S288L] was tested, and the phosphorylation enrichment was 1.74. In the case of FKPENYRRLDI [VHL_Y175_V170F], the phosphorylation enrichment is reported as 0.738. With EFRFIYMAVQH [PTPN11_Y515_Q510E_YF] the phosphorylation enrichment was 1.35. For YDYKKYGKGLR [ZNF445_Y433], the phosphorylation enrichment was 0.517. QLDQRYLLVPE [DDX49_Y223] gave a phosphorylation enrichment of 0.978. LVTAWYIGFLC [KCNQ2_Y237] gave a phosphorylation enrichment of 2.62. With DAHFTYSRYPW [LY75_Y888_D884A] the phosphorylation enrichment was 0.885. GGSSPYSRRLP [CDK13_Y351] was tested, and the phosphorylation enrichment was 0.501. ESAAIYNPVIY [RHO_Y301_K296E] gave a phosphorylation enrichment of 1.26. TKQLTYEEQDL [PIK3C3_Y310] showed a phosphorylation enrichment of 1.38. Work on GSQERDFELVE [TSC2_Y407_Y407D] yielded a phosphorylation enrichment of 1.04. In the case of PVADRYDQSFE [MAPK14_Y323_P322R], the phosphorylation enrichment is reported as 1.5. YRIGPYQPSVP [MATR3_Y784_N787S] showed a phosphorylation enrichment of 0.708. For GLDGSYLLRFS [SH2D1A_Y29_D33Y_YF], the phosphorylation enrichment was 0.965. For SKNSKCNAEST [PSEN1_Y315_Y315C], the phosphorylation enrichment was 0.768. For GDPTEYYSTAI [IGSF22_Y501], the phosphorylation enrichment was 0.873. TLLERYGMTKI [ACSF3_Y355_E359K] gave a phosphorylation enrichment of 0.734. For NYAKMYCNPDA [KNL1_Y489], the phosphorylation enrichment was 1.1. LLVVLYKFRCF [PSEN1_Y154_Y159F_YF] gave a phosphorylation enrichment of 1.97. With DCPASYKKKSM [PDGFRA_Y768_R764C] the phosphorylation enrichment was 0.323.

Each sequence was assayed against Hck (UniProt P08631) in the same assay as above.
Hck, sequence (P08631 whole entry, looked up): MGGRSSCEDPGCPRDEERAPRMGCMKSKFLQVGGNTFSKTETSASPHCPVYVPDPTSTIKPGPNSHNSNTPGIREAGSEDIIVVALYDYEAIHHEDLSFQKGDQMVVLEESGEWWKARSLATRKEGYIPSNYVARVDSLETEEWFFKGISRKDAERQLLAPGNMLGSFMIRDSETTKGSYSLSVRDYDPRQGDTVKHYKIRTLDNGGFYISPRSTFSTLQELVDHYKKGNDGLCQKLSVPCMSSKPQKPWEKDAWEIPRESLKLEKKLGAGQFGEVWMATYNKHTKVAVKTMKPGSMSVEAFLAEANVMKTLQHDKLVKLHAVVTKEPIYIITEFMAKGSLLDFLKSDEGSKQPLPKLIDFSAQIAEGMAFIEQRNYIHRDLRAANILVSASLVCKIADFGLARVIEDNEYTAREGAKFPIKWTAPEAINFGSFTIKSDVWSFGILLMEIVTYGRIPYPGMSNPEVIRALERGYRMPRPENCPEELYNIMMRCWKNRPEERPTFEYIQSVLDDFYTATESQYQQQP
AKLKDYYIFNK [CCDC42_Y149] showed a phosphorylation enrichment of 0.503. In the case of FEPWVYSLSFE [PRKDC_Y647_F649L_YF], the phosphorylation enrichment is reported as 4.58. RSDSSYRMSAT [NHS_Y1532] gave a phosphorylation enrichment of 0.775. For TFEPNYGTVKQ [RAPGEF6_Y1447_YF], the phosphorylation enrichment was 0.822. In the case of CTTIHYNFMWN [TP53_Y234_C238W_YF], the phosphorylation enrichment is reported as 0.543. In the case of PLDGEYFSLQI [TP53_Y327_T329S], the phosphorylation enrichment is reported as 1.76. Sequence RTVPLYESLRK [DDB1_Y718_P721L] has a phosphorylation enrichment of 12.4. For LKLIQYHLTQQ [AKAP4_Y554], the phosphorylation enrichment was 0.534. LITLVYGCSRQ [TMPRSS6_Y290_S288L] was tested, and the phosphorylation enrichment was 0.721. Sequence FKPENYRRLDI [VHL_Y175_V170F] has a phosphorylation enrichment of 0.383. EFRFIYMAVQH [PTPN11_Y515_Q510E_YF] showed a phosphorylation enrichment of 1.63. YDYKKYGKGLR [ZNF445_Y433] gave a phosphorylation enrichment of 0.366. For QLDQRYLLVPE [DDX49_Y223], the phosphorylation enrichment was 0.664. LVTAWYIGFLC [KCNQ2_Y237] was tested, and the phosphorylation enrichment was 1.11. In the case of DAHFTYSRYPW [LY75_Y888_D884A], the phosphorylation enrichment is reported as 3.76. GGSSPYSRRLP [CDK13_Y351] gave a phosphorylation enrichment of 0.358. For ESAAIYNPVIY [RHO_Y301_K296E], the phosphorylation enrichment was 9.21. For TKQLTYEEQDL [PIK3C3_Y310], the phosphorylation enrichment was 0.552. With GSQERDFELVE [TSC2_Y407_Y407D] the phosphorylation enrichment was 0.493. For PVADRYDQSFE [MAPK14_Y323_P322R], the phosphorylation enrichment was 0.441. YRIGPYQPSVP [MATR3_Y784_N787S] was tested, and the phosphorylation enrichment was 0.481. GLDGSYLLRFS [SH2D1A_Y29_D33Y_YF] showed a phosphorylation enrichment of 0.408. SKNSKCNAEST [PSEN1_Y315_Y315C] gave a phosphorylation enrichment of 0.499. For GDPTEYYSTAI [IGSF22_Y501], the phosphorylation enrichment was 0.809. In the case of TLLERYGMTKI [ACSF3_Y355_E359K], the phosphorylation enrichment is reported as 0.478. Sequence NYAKMYCNPDA [KNL1_Y489] has a phosphorylation enrichment of 0.518. For LLVVLYKFRCF [PSEN1_Y154_Y159F_YF], the phosphorylation enrichment was 0.622.
